Assays:
[1] = molecular target: GST-Stat3 Arg31→Ala31 [GST: P08515]
[2] = molecular target: GST-Stat3 fusion protein, P42227
[3] = molecular target: mouse STAT3 (endogenous in GT1-7 cells and VSMC, or expressed from mouse STAT3 pcDNA3 in HEK293 cells), P42227
Sequence of mouse STAT3 (endogenous in GT1-7 cells and VSMC, or expressed from mouse STAT3 pcDNA3 in HEK293 cells), P42227 (P42227 2-770): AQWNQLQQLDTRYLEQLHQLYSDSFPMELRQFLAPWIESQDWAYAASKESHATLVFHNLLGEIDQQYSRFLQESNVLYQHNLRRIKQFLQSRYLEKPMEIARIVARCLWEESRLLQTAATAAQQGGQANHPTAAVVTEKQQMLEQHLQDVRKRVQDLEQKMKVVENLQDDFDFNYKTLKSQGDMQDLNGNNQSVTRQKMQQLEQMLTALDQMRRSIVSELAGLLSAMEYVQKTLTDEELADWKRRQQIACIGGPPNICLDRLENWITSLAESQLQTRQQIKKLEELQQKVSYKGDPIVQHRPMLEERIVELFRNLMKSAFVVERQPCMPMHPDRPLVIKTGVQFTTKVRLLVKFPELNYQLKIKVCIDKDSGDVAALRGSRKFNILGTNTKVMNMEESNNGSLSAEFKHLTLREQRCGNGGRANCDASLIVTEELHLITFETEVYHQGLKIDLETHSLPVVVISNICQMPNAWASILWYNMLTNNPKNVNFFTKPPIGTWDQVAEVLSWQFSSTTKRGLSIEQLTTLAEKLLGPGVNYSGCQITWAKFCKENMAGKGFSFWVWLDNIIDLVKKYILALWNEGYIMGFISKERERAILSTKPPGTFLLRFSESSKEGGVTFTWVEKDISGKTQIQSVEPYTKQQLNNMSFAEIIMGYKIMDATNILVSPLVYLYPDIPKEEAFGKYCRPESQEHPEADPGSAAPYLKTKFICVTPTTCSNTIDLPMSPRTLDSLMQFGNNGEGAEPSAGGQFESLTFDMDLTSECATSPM

Sequence of GST-Stat3 fusion protein, P42227 (P42227 whole entry, the tested form may be a part): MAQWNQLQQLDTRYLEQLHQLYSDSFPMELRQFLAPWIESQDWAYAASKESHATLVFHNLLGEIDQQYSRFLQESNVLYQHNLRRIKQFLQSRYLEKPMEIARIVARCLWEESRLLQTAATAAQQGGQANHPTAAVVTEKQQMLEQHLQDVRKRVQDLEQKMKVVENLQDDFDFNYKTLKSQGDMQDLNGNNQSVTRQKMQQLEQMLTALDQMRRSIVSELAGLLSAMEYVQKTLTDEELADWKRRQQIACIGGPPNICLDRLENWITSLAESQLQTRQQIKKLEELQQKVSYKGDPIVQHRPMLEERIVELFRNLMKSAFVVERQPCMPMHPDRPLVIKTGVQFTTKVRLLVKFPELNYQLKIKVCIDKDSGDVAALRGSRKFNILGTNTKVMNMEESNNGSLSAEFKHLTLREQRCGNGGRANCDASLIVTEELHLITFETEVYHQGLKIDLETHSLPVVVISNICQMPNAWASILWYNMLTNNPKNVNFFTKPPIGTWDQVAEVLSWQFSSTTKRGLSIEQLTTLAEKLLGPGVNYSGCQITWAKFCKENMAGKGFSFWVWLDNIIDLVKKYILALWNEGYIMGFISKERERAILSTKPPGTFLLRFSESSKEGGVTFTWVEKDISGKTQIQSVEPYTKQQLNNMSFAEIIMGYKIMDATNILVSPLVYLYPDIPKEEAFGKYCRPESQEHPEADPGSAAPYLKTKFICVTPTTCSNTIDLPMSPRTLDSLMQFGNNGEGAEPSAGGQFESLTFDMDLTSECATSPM
Sequence of GST-Stat3 Arg31→Ala31 [GST: P08515] (P08515 whole entry, looked up, the tested form may be a part): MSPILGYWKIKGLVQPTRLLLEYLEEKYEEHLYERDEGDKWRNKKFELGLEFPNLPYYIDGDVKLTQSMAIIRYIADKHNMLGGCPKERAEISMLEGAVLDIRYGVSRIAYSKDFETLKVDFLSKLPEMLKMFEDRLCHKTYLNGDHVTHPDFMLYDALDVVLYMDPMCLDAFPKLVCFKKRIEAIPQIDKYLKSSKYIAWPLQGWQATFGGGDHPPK

Protein	in vitro methylation with [3H]-AdoMet, MEF extracts as the enzyme source [1]	in vitro methylation with [3H]-AdoMet, MEF extracts as the enzyme source [2]	leptin-induced Stat3 methylation in VSMC (anti-Stat3 immunoprecipitation, immunoblot with α-metR antibody) [3]	in vitro methylation with [3H]-AdoMet [2]
mouse PRMT2 (untagged; endogenous in NIH3T3 cells, MEFs, GT1-7 cells and VSMC, or expressed from mouse PRMT2 cDNA in HEK293 cells) (protein) MEAPGEGPCSESQVIPVLEEDPVDYGCEMQLLQDGAQLQLQLQPEEFVAIADYTATDETQLSFLRGEKILILRQTTADWWWGERAGCCGYIPANHLGKQLEEYDPEDTWQDEEYFDSYGTLKLHLEMLADQPRTTKYHSVILQNKESLKDKVILDVGCGTGIISLFCAHHARPKAVYAVEASDMAQHTSQLVLQNGFADTITVFQQKVEDVVLPEKVDVLVSEWMGTCLLFEFMIESILYARDTWLKGDGIIWPTTAALHLVPCSAEKDYHSKVLFWDNAYEFNLSALKSLAIKEFFSRPKSNHILKPEDCLSEPCTILQLDMRTVQVPDLETMRGELRFDIQKAGTLHGFTAWFSVYFQSLEEGQPQQVVSTGPLHPTTHWKQTLFMMDDPVPVHTGDVVHGFCCVTKKSGMEKAHVCLSELGCHVRTRSHVSTELETGSFRSGGDS	This mutation resulted in substantially no methylation of Stat3 (FIG. 20B, lane 3)	Cell extracts from wild-type MEFs were also capable of methylating GST-Stat3, whereas cell extracts from PRMT2^-/- cells abolished Stat3 methylation (FIG. 20B, lanes 2 and 4)	leptin (100 nM) evoked a transient methylation of Stat3 at 10 min in wild-type VSMC (FIG. 22D, lane 2-5), whereas increased Stat3 methylation was not observed in PRMT2^-/- cells (FIG. 22D, lane 6-9)	
mouse PRMT2-Flag (FLAG-tagged full-length PRMT-2) (protein) MEAPGEGPCSESQVIPVLEEDPVDYGCEMQLLQDGAQLQLQLQPEEFVAIADYTATDETQLSFLRGEKILILRQTTADWWWGERAGCCGYIPANHLGKQLEEYDPEDTWQDEEYFDSYGTLKLHLEMLADQPRTTKYHSVILQNKESLKDKVILDVGCGTGIISLFCAHHARPKAVYAVEASDMAQHTSQLVLQNGFADTITVFQQKVEDVVLPEKVDVLVSEWMGTCLLFEFMIESILYARDTWLKGDGIIWPTTAALHLVPCSAEKDYHSKVLFWDNAYEFNLSALKSLAIKEFFSRPKSNHILKPEDCLSEPCTILQLDMRTVQVPDLETMRGELRFDIQKAGTLHGFTAWFSVYFQSLEEGQPQQVVSTGPLHPTTHWKQTLFMMDDPVPVHTGDVVHGFCCVTKKSGMEKAHVCLSELGCHVRTRSHVSTELETGSFRSGGDS				Flag fusion protein from the cells transfected wild-type PRMT2-Flag cDNA could methylate GST-Stat3

From patent publication US20060239990
